Patent publication US20200308591A1, “PROMOTER REGION ANALYSIS METHODS AND CELLS FOR PRACTICING SAME” (Eurofins DiscoverX Corporation, priority 2019, published 2020)

How the values were obtained:
CD40 receptor [1] = target: T1, CD40 receptor (Homo sapiens, UniProt P25942); assay: NFkB EFC reporter assay cells, CD40L stimulation (FIG. 7); type: cell-based; settings: 3h or 6h incubation
T1 construct: The cells also endogenously express CD40 (receptor); endogenous in cells; host or cells: U2OS
From the text: Often multiple ligands acting through different cellular receptors will stimulate the same signaling pathway allowing the same EFC reporter assay to be used to study the function and inhibition of function for these multiple ligands. For example, in FIGS. 4-6 stimulation and inhibition of TNFα-stimulated NFkB signaling and gene expression was studied.

[2] = tested on: NFκB (nuclear factor NF-kappa-B p100 subunit) pathway; assay: U2OS NFκB pathway reporter cell line (Example 7); type: cell-based; settings: 5000 cells/well; 360 min at 37 °C
From the text: A reporter cell line was engineered to express an Enzyme Donor (ED) tagged carrier protein controlled by a pathway-inducible transcriptional response element. Pathway activation results in induced expressions of the ED-tagged protein. Addition of exogenous Enzyme Acceptor (EA), and buffer, lyses the cell and forces complementation of the ED and EA enzyme fragments.
In this example, the cell line is an NFκB (nuclear factor NF-kappa-B p100 subunit) pathway reporter cell line. The cells are U2OS cells that include a nucleic acid encoding a β-galactosidase donor fragment (ED) having the amino acid sequence […] (SEQ ID NO:30) operably coupled to a promoter region comprising an NFκB response element.
(§1) Cells were plated in a 96-well plate and incubated at 37° C. and 5% CO2 to allow the cells to attach and grow. Cells were then stimulated with a control agonist (here, CD40L), using the assay conditions described below. Following stimulation, signal was detected using the PathHunter® ProLabel®/ProLink™ Detection Kit (Eurofins DiscoverX Corporation) according to the recommended protocol.

CD40 receptor [3] = target: T1, CD40 receptor; assay: U2OS NF-κB pathway reporter assay with carrier protein (Example 12); type: cell-based; settings: 5000 cells/well; 6 h at 37 °C
From the text: (§2) A reporter cell line was engineered to express a carrier protein-Enzyme Donor (ED) tagged carrier protein controlled by a pathway-inducible transcriptional response element. Pathway activation results in induced expressions of the carrier protein-ED-tagged protein. Addition of exogenous Enzyme Acceptor (EA), and buffer, lyses the cell and forces complementation of the ED and EA enzyme fragments.
In this example, the cell line is a NFκB (nuclear factor NF-kappa-B p100 subunit) pathway reporter cell line. The cells are U2OS cells that include a nucleic acid encoding a reporter fragment and β-galactosidase donor fragment (ED) having the amino acid sequence […] (SEQ ID NO:30) operably coupled to a promoter region comprising a NFκB response element. The cells also endogenously express CD40 (receptor).
as §1

CD40 receptor [4] = target: T1, CD40 receptor; assay: EFC-based versus Luciferase NFκB transcriptional reporter assay, CD40L; type: cell-based; settings: 6h stimulation
Method: FIG. 13. […] U2OS cells stably transfected with a plasmid encoding an NFκB transcriptional response element driving expression of either the EFC reporter (left panel) or (Firefly) Luciferase-PEST were stimulated with a range of concentrations of CD40L for 6h followed by cell lysis, addition of excess EA, incubation for 1h and determination of luminescence (RLU). The luminescence detected indicates the extent of induction of the respective carrier protein by CD40L.
The EFC-based NFκB transcriptional reporter assay was over 35 times more sensitive to CD40L than the luciferase-based assay. Note that the reporter plasmids used to make the stable cell lines had identical elements with the only significant difference being the identity of the carrier protein. Specifically, both plasmids had the same promoter elements and both had the same protein destabilizing element (PEST sequence).

[5] = target: T2, RANK (Receptor activator of nuclear factor κ B receptor) (Homo sapiens, UniProt Q9Y6Q6); assay: U2OS RANK-NFκB pathway reporter assay (Example 13); type: cell-based; settings: 5000 cells/well; 16 h at 37 °C
T2 construct: expressed in transfected cells; host or cells: U2OS
T2 sequence (Q9Y6Q6 30-616): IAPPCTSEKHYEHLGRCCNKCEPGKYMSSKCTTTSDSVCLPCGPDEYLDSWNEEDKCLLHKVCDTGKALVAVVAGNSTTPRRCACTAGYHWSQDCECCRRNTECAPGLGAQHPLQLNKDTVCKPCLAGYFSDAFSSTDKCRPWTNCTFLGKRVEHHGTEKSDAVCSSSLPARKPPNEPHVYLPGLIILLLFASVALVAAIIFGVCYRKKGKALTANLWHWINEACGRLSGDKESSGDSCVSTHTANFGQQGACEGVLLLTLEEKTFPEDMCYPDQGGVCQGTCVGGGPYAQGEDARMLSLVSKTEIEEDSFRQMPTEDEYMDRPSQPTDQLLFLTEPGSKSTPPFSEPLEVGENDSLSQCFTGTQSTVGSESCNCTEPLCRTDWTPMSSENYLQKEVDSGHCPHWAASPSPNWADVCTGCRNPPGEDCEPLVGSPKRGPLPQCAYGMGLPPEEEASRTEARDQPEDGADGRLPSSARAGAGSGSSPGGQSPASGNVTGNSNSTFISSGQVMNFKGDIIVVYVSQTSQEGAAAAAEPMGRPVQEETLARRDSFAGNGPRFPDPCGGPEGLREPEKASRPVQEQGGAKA
From the text: as §2
In this example, the cell line is a NFκB (Nuclear factor NF-kappa-B p100 subunit) pathway reporter cell line. The cells are U2OS cells that include a nucleic acid encoding a reporter fragment and β-galactosidase donor fragment (ED) having the amino acid sequence […] (SEQ ID NO:30) operably coupled to a promoter region comprising a NFκB response element. To produce the RANK-NFκB reporter assay RANK (Receptor activator of nuclear factor κ B receptor) is co-expressed in the above-developed U2OS NFκB Pathway Reporter cells.
Cells were plated in a 96-well plate and incubated at 37° C. and 5% CO2 to allow the cells to attach and grow. Cells were then stimulated with a control agonist (here, sRANKL), using the assay conditions described below. Following stimulation, signal was detected using the PathHunter® ProLabel®/ProLink™ Detection Kit (Eurofins DiscoverX Corporation) according to the recommended protocol.

RANK = assay: Comparison of U2OS NF-κB and U2OS RANK-NF-κB reporter cell lines (Example 16); type: cell-based; settings: FIG. 24b versus FIG. 24a
From the text: Two reporter cell lines were engineered to express a carrier protein-Enzyme Donor (ED) tagged carrier protein controlled by a pathway-inducible transcriptional response element. Pathway activation results in induced expressions of the carrier protein-ED-tagged protein. Addition of exogenous Enzyme Acceptor (EA), and buffer, lyses the cell and forces complementation of the ED and EA enzyme fragments.
In this example, a first cell line is a U2OS-NF-κB pathway reporter cell line and the second cell line is U2OS RANK-NF-κB cell line. The cells are U2OS for both the cell lines as prepared in this example 16. The U2OS-NF-κB cell line includes a nucleic acid encoding a reporter fragment and β-galactosidase donor fragment (ED) having the amino acid sequence […] (SEQ ID NO:30) operably coupled to a promoter region comprising a NFκB response element. The U2OS RANK-NF-κB cell line includes a nucleic acid encoding a reporter fragment and β-galactosidase donor fragment (ED) having the amino acid sequence […] (SEQ ID NO:30) operably coupled to a promoter region comprising a NFκB response element followed by co-expression of RANK-CD27 (receptor) in the above-developed U2OS NF-κB pathway reporter cell line.
Assay results for U2OS NF-κB cell line with CD40L ligand is shown in FIG. 24a and assay results for U2OS RANK NF-κB cell line with sRANK ligand is shown in FIG. 24b.

[6] = target: T3, RANK (Receptor activator of nuclear factor κ B receptor) co-expressed in U2OS NFκB pathway reporter cells (UniProt Q9Y6Q6); assay: cell-based or functional assay
T3 sequence (looked up): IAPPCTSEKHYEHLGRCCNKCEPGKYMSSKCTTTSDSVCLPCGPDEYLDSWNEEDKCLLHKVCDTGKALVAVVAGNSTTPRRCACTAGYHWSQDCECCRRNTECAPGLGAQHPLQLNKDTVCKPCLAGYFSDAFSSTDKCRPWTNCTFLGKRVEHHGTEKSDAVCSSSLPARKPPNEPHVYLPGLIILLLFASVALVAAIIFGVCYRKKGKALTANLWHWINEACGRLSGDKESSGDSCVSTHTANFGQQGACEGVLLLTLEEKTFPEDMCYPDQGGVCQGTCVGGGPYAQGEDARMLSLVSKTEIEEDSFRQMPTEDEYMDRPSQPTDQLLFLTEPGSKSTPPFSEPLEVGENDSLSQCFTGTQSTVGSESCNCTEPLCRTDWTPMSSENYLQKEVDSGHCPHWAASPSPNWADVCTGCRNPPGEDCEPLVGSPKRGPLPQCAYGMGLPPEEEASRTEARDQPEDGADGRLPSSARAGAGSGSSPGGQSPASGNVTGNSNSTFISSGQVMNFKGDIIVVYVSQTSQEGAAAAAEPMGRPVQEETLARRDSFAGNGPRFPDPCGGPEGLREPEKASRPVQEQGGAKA

T1 sequence (P25942 21-277): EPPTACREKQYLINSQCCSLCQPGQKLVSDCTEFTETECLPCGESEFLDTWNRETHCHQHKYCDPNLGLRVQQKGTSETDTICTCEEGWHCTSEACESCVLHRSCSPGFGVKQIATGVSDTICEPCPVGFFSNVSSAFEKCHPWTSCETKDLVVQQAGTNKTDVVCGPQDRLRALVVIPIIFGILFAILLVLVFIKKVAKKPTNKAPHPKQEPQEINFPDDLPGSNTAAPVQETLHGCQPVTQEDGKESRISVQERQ

Question: Which “response of endogenous CD40 receptor to ligand” value (CD40 receptor [1]) does the source give for “CD40L: CD40 ligand, control agonist acting through the CD40 receptor” here?
Answer: responded robustly

Question: What about the “EC50 for control agonist stimulation” value [2] of the same molecule?
Answer: 225.4 ng/mL

Question: And the “signal:background ratio at agonist EMAX” value [2]?
Answer: 26.3

Question: And the “EC50 for control agonist stimulation” value (CD40 receptor [3])?
Answer: 0.0886 µg/mL

Question: And the “signal:background ratio” value (CD40 receptor [3])?
Answer: 102.8

Question: And the “sensitivity of EFC-based assay relative to luciferase-based assay” value (CD40 receptor [4])?
Answer: over 35 times

B1: soluble RANKL (ligand, UniProt O14788 143-317, looked up)
chain: EKAMVDGSWLDLAKRSKLEAQPFAHLTINATDIPSGSHKVSLSSWYHDRGWAKISNMTFSNGKLIVNQDGFYYLYANICFRHHETSGDLATEYLQLMVYVTKTSIKIPSSHTLMKGGSTKYWSGNSEFHFYSINVGGFFKLRSGEEISIEVSNPSLLDPDQDATYFGAFKVRDID
Question: What does the source list for B1?
Answer: EC50 for control agonist stimulation [5]: 4.034 ng/mL; signal:background ratio [5]: 24.0; EC50 compared with U2OS NF-κB cell line with CD40L (RANK): lower EC50; signal:background ratio compared with U2OS NF-κB cell line with CD40L (RANK): larger signal:background ratio; EC50 for control agonist stimulation, U2OS RANK-NFκB pathway reporter cell line [6]: 4.03 ng/mL; signal:background ratio, U2OS RANK-NFκB pathway reporter cell line [6]: 24
